Laboratory results published in patent publication US20260275312, “CRISPR NUCLEASE POLYPEPTIDES AND GENE EDITING SYSTEMS COMPRISING SUCH” (ARBOR BIOTECHNOLOGIES, INC., published 2026).

Legend:
[1] = target: T1, Nuclease H (synthetic construct); experiment: cell_activity; HEK293T; PAM AAC 3'; Table 16 SEQ IDs shifted, guide taken from Table 15; settings: tags: N-term SV40 NLS, XTEN linker + C-term nucleoplasmin NLS
T1 chain: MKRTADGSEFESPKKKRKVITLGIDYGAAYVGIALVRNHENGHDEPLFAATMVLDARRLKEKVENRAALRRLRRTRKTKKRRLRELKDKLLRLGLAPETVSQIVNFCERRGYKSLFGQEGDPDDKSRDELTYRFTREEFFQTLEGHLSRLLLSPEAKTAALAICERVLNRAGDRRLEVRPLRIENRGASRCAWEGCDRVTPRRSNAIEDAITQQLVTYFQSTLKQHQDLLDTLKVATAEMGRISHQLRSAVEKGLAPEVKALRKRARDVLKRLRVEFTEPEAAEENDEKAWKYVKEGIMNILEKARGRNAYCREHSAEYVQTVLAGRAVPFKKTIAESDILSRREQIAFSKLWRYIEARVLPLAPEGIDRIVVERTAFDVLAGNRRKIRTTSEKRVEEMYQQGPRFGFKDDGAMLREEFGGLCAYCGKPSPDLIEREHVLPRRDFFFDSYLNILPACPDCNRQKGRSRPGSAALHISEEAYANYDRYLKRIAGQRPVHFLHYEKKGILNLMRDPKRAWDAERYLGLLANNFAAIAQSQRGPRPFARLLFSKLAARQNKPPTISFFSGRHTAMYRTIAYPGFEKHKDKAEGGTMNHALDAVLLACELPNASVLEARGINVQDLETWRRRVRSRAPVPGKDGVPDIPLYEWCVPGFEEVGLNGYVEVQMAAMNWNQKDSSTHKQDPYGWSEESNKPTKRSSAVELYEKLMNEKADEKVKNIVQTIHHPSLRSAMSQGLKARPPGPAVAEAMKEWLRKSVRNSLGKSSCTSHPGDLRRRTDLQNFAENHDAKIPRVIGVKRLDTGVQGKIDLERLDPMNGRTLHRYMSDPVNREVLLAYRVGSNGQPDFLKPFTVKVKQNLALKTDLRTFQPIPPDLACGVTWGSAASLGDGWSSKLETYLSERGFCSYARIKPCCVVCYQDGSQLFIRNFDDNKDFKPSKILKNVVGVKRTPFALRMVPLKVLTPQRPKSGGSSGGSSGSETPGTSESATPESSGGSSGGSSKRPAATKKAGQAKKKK

[2] = target: T2, Nuclease H D912R (synthetic construct, D912R); experiment: cell_activity; HEK293T; PAM AAC; settings: tags: N-term SV40 NLS, XTEN linker + C-term nucleoplasmin NLS
T2 chain: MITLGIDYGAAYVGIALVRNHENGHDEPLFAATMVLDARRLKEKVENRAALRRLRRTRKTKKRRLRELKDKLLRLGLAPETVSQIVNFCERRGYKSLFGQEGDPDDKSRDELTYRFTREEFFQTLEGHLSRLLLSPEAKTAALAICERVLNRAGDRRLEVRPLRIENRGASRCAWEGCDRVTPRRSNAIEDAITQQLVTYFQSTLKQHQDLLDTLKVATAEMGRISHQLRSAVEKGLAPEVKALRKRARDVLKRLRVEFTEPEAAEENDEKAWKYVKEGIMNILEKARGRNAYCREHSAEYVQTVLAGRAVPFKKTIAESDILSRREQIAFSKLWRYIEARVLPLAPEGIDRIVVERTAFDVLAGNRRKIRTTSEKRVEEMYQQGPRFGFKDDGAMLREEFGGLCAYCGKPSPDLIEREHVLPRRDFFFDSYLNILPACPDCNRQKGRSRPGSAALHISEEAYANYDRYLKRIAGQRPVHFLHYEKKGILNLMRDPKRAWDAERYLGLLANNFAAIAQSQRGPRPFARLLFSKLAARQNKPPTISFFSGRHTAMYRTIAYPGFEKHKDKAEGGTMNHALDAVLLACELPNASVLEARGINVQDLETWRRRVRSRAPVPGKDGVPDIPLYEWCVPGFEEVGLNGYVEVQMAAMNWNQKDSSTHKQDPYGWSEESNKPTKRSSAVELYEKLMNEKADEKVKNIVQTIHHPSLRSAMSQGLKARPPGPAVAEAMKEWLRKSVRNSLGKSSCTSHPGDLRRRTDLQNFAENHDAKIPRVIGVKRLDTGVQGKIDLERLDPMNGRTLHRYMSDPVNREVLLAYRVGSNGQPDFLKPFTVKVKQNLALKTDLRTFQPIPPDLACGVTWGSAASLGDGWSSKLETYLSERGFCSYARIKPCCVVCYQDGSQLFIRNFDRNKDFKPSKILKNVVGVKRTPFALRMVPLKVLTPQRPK
Experimental: HEK293T cells were transfected with plasmids expressing the Nuclease H polypeptides and the gRNAs provided herein following the methods provided in Example 1 above. Gene editing efficiencies were determined by NGS following the methods also provided in Example 1. The NGS results were analyzed also following the methods provided in Example 1 above.
Indel ratios, referring to the percentage of NGS reads comprising indels, were calculated for the reference and for each variant. The indel ratios used for fold change calculations were the average of two technical replicates. To then calculate fold change in indel ratios, the indel ratio for each variant was divided by the indel ratio for the reference. […] Numbering is relative to the reference nuclease of SEQ ID NO: 64 (i.e., without an NLS).

B1: H AAVS1-T5 RNA guide ; AAVS1-T5 target (H) (ssRNA ; dsDNA)
RNA: GGCUAUAAUCCAUGCUGACCGUUUCAAUCAACCUGAUCUCUCUGCUUGCGCUGCAGGCUUCAUAAGAUCAGUAGGUUGAAAAGAGCAUCCGUCCGACAUGCACUCCGGGAUGGGGCAGUCCCGGCUCUUGCGGUUCCCGAUGCAGUUAUGUGUCCGCGGAACACGGUGUCGGACACGUCGCAAGACAGGAUGUGAGCCCAUUAUCCACAUUAGGAUCAAUGUACGCAUGAGCAGUCCGCAAUGCCGGGGACGCU
DNA 1: GGCTATAATCCATGCTGACC
DNA 2: GGTCAGCATGGATTATAGCC
[1]
  activity: 0.0105 indel ratio
[2]
  fold change in indel ratio vs reference: 4.21 fold indel vs reference
